T1: FcγRIIb extracellular domain with C-terminal His tag (human, UniProt P31994 43-217)
T1 construct: extracellular domain; expressed in FreeStyle293 cells; analyte in the Biacore assay; also called FcgRIIb; 2b; not shown: His tag at the C terminus
T1 sequence (looked up): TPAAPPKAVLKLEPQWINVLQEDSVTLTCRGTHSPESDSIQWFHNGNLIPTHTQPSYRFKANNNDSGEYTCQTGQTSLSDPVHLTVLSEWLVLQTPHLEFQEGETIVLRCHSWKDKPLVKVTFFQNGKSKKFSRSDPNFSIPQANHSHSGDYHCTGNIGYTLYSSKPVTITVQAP

B1: GpH7-B3 variant K326_04F/GpL16-k0 (antibody, human IgG1, kappa)
heavy: not shown
light: DIVMTQSPLSLPVTPGEPASISCQASESLVHSNRNTYLHWYLQKPGQSPQLLIYKVSNRFSGVPDRFSGSGSGTDFTLKISRVEAEDVGVYYCSQNTHVPPTFGQGTKVEIERTVAAPSVFIFPPSDEQLKSGTASVVCLLNNFYPREAKVQWKVDNALQSGNSQESVTEQDSKDSTYSLSSTLTLSKADYEKHKVYACEVTHQGLSSPVTKSFNRGEC
notes: homodimerized; mutation in both H chains; also called Ho Ab K326_04F
B2: GpH7-B3 variant K334_03V/GpL16-k0 (antibody, human IgG1, kappa)
heavy: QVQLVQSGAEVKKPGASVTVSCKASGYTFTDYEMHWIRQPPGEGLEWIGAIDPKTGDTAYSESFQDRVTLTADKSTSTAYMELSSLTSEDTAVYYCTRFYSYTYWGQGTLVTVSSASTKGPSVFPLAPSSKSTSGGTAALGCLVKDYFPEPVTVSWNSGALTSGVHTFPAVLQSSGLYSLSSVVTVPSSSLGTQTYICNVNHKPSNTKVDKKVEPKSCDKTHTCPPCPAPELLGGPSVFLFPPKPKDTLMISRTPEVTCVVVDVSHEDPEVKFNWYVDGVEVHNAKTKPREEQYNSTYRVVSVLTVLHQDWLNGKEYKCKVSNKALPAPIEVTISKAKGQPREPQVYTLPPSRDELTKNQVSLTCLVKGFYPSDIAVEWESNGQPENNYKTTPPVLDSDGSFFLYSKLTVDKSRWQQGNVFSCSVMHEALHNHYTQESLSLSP
light: B1 light
notes: homodimerized; mutation in both H chains; also called Ho Ab K334_03V
B3: GpH7-B3 variant K326_20W/GpL16-k0 (antibody, human IgG1, kappa)
heavy: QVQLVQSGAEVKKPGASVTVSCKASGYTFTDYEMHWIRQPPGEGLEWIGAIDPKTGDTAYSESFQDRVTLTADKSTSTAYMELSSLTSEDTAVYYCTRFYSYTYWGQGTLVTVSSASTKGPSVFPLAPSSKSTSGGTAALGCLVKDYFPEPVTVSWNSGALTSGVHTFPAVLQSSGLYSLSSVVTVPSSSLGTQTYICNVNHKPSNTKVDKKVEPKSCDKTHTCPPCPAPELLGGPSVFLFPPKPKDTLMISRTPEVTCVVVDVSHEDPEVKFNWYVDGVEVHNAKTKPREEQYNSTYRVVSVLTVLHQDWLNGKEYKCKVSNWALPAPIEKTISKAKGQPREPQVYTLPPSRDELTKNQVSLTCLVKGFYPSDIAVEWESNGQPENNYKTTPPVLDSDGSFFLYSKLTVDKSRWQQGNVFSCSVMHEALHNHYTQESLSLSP
light: B1 light
notes: homodimerized; mutation in both H chains; also called Ho Ab K326_20W
B4: GpH7-B3 variant H268_01G/GpL16-k0 (antibody, human IgG1, kappa)
heavy: not shown
light: B1 light
notes: homodimerized; mutation in both H chains; also called Ho Ab H268_01G
B5: GpH7-B3 variant I332_04F/GpL16-k0 (antibody, human IgG1, kappa)
heavy: not shown
light: B1 light
notes: homodimerized; mutation in both H chains; also called Ho Ab I332_04F
B6: GpH7-B3 variant K326_15Y/GpL16-k0 (antibody, human IgG1, kappa)
heavy: not shown
light: B1 light
notes: homodimerized; mutation in both H chains; also called Ho Ab K326_15Y
B7: GpH7-B3 variant I336_08L/GpL16-k0 (antibody, human IgG1, kappa)
heavy: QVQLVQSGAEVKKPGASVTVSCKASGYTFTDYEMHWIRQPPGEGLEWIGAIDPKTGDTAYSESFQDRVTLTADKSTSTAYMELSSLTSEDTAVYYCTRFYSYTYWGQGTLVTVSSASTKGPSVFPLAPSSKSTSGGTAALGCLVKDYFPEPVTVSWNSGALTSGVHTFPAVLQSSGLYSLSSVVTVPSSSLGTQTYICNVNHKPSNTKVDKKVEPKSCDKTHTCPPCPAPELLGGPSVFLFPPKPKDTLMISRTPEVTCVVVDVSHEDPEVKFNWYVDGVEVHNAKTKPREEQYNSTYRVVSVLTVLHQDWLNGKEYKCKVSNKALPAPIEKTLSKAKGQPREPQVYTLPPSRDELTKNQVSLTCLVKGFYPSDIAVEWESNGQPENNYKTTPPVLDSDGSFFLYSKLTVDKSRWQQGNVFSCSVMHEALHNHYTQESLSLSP
light: B1 light
notes: homodimerized; mutation in both H chains; also called Ho Ab I336_08L
B8: GpH7-B3 variant L235_20W/GpL16-k0 (antibody, human IgG1, kappa)
heavy: not shown
light: B1 light
notes: homodimerized; mutation in both H chains; also called Ho Ab L235_20W
B9: GpH7-B3 variant K334_02A/GpL16-k0 (antibody, human IgG1, kappa)
heavy: not shown
light: B1 light
notes: homodimerized; mutation in both H chains; also called Ho Ab K334_02A
B10: GpH7-B3 variant I332_14T/GpL16-k0 (antibody, human IgG1, kappa)
heavy: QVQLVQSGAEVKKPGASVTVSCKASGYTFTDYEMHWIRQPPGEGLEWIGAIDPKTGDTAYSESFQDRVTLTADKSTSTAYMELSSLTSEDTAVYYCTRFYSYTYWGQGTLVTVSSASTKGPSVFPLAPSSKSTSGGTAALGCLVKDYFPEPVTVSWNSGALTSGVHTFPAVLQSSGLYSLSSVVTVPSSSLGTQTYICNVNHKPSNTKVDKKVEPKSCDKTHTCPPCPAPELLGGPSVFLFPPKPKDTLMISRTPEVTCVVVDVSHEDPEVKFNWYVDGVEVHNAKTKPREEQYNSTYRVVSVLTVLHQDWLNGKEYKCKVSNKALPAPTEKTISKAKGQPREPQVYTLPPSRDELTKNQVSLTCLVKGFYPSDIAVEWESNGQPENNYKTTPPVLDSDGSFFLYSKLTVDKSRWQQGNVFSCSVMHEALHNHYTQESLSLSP
light: B1 light
notes: homodimerized; mutation in both H chains; label printed T332_14T, read as I332_14T; also called Ho Ab I332_14T
B11: GpH7-B3 variant K326_06M/GpL16-k0 (antibody, human IgG1, kappa)
heavy: not shown
light: B1 light
notes: homodimerized; mutation in both H chains; also called Ho Ab K326_06M
B12: GpH7-B3 variant A327_10E/GpL16-k0 (antibody, human IgG1, kappa)
heavy: not shown
light: B1 light
notes: homodimerized; mutation in both H chains; also called Ho Ab A327_10E
B13: GpH7-B3 variant L328_02A/GpL16-k0 (antibody, human IgG1, kappa)
heavy: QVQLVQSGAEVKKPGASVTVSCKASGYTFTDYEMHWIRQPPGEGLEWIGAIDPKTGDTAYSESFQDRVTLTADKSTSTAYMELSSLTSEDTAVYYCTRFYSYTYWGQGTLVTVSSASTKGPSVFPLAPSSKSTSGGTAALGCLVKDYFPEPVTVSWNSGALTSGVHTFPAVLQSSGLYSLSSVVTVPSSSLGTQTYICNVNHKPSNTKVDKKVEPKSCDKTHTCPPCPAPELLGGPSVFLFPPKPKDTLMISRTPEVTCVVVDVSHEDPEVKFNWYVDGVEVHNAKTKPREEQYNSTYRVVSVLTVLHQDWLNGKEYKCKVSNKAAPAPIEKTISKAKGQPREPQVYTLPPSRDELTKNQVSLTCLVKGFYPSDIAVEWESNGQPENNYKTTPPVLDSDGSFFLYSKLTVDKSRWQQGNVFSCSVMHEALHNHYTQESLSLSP
light: B1 light
notes: homodimerized; mutation in both H chains; also called Ho Ab L328_02A
B14: GpH7-B3 variant P331_15Y/GpL16-k0 (antibody, human IgG1, kappa)
heavy: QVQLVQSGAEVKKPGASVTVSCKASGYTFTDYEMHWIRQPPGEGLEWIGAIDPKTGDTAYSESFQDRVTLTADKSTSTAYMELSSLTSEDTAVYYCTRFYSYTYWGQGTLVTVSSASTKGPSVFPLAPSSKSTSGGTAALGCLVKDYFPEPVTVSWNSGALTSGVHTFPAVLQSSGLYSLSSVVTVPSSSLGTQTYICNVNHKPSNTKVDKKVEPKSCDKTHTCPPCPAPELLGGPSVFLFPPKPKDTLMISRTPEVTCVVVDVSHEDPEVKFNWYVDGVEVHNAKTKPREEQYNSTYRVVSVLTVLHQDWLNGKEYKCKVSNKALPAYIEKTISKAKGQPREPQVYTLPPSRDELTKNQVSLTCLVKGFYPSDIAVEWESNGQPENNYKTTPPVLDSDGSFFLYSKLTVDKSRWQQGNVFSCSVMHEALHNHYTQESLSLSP
light: B1 light
notes: homodimerized; mutation in both H chains; also called Ho Ab P331_15Y
B15: GpH7-B3 variant S324_06M/GpL16-k0 (antibody, human IgG1, kappa)
heavy: not shown
light: B1 light
notes: homodimerized; mutation in both H chains; also called Ho Ab S324_06M
B16: GpH7-B3 variant P331_20W/GpL16-k0 (antibody, human IgG1, kappa)
heavy: not shown
light: B1 light
notes: homodimerized; mutation in both H chains; also called Ho Ab P331_20W
B17: GpH7-B3 variant P238_09D/GpL16-k0 (antibody, human IgG1, kappa)
heavy: not shown
light: B1 light
notes: homodimerized; mutation in both H chains; also called Ho Ab P238_09D
B18: GpH7-B3 variant I332_09D/GpL16-k0 (antibody, human IgG1, kappa)
heavy: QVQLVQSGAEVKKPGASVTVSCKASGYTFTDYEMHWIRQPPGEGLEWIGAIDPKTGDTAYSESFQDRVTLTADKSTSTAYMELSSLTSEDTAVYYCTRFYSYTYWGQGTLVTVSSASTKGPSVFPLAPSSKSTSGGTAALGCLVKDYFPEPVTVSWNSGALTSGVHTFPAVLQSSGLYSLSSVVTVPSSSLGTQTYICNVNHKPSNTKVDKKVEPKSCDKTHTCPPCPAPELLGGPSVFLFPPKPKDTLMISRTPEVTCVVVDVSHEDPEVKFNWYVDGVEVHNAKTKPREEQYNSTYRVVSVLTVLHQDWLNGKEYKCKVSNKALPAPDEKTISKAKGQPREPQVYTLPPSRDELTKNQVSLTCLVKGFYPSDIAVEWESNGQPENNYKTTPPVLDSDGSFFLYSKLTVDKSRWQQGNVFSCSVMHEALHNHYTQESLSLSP
light: B1 light
notes: homodimerized; mutation in both H chains; also called Ho Ab I332_09D
B19: GpH7-B3 variant P331_16H/GpL16-k0 (antibody, human IgG1, kappa)
heavy: not shown
light: B1 light
notes: homodimerized; mutation in both H chains; also called Ho Ab P331_16H
B20: GpH7-B3 variant K334_14T/GpL16-k0 (antibody, human IgG1, kappa)
heavy: not shown
light: B1 light
notes: homodimerized; mutation in both H chains; also called Ho Ab K334_14T
B21: GpH7-B3 variant A327_09D/GpL16-k0 (antibody, human IgG1, kappa)
heavy: not shown
light: B1 light
notes: homodimerized; mutation in both H chains; also called Ho Ab A327_09D
B22: GpH7-B3 variant H268_09D/GpL16-k0 (antibody, human IgG1, kappa)
heavy: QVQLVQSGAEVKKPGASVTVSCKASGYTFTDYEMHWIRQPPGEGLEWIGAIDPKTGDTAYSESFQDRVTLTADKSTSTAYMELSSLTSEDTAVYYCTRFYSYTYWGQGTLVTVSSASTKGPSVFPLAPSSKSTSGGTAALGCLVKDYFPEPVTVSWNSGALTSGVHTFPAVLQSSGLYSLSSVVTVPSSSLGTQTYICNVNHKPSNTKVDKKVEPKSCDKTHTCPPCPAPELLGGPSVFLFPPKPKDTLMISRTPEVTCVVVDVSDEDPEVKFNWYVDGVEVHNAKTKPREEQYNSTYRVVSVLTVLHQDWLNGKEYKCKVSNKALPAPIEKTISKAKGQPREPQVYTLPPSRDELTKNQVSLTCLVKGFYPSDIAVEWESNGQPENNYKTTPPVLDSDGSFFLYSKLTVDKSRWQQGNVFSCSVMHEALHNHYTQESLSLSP
light: B1 light
notes: homodimerized; mutation in both H chains; also called Ho Ab H268_09D
B23: GpH7-B3 variant G237_04F/GpL16-k0 (antibody, human IgG1, kappa)
heavy: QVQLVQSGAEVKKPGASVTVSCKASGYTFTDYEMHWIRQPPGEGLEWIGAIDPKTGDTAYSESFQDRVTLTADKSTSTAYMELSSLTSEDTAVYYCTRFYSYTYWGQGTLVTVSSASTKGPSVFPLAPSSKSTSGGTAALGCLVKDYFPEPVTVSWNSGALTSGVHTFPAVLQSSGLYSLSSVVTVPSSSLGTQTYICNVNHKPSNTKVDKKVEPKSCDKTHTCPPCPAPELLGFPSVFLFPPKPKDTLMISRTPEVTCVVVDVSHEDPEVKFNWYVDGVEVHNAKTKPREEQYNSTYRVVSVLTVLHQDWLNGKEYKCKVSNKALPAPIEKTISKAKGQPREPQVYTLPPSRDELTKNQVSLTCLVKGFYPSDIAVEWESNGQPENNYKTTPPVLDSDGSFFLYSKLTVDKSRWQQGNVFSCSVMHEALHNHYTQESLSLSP
light: B1 light
notes: homodimerized; mutation in both H chains; also called Ho Ab G237_04F
B24: GpH7-B3 variant K326_19Q/GpL16-k0 (antibody, human IgG1, kappa)
heavy: not shown
light: B1 light
notes: homodimerized; mutation in both H chains; label printed K326_190, read as K326_19Q; also called Ho Ab K326_19Q
B25: GpH7-B3 variant K326_14T/GpL16-k0 (antibody, human IgG1, kappa)
heavy: not shown
light: B1 light
notes: homodimerized; mutation in both H chains; also called Ho Ab K326_14T
B26: GpH7-B3 variant S267_19Q/GpL16-k0 (antibody, human IgG1, kappa)
heavy: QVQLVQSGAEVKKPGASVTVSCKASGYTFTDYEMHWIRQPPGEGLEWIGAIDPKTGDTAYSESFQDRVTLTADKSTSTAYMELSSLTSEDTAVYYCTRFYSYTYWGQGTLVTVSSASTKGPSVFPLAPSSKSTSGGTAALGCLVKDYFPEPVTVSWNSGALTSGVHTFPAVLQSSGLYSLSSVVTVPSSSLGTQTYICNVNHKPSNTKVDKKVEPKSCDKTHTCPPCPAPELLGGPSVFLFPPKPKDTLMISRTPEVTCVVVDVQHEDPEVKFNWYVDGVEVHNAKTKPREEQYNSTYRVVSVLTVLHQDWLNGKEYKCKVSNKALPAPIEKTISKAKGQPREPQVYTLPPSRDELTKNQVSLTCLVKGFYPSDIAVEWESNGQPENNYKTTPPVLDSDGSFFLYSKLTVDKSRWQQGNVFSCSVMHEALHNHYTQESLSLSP
light: B1 light
notes: homodimerized; mutation in both H chains; also called Ho Ab S267_19Q
B27: GpH7-A5/GpH7-B3 variant T335_15Y/GpL16-k0 (antibody, human IgG1, kappa)
heavy 1: not shown
heavy 2: not shown
light: B1 light
notes: mutation in one H chain only; also called He Ab T335_15Y; T335Y
B28: GpH7-A5/GpH7-B3 variant Y300_12R/GpL16-k0 (antibody, human IgG1, kappa)
heavy 1: not shown
heavy 2: not shown
light: B1 light
notes: mutation in one H chain only; also called He Ab Y300_12R; Y300R
B29: GpH7-A5/GpH7-B3 variant V266_19Q/GpL16-k0 (antibody, human IgG1, kappa)
heavy 1: not shown
heavy 2: not shown
light: B1 light
notes: mutation in one H chain only; also called He Ab V266_19Q; V266Q

Each binder was assayed against T1, FcγRIIb extracellular domain with … (assay: SPR (Biacore), captured antibody, FcγRIIb analyte; binding relative to GpH7-B3/GpL16-k0 = 100).

First: B1
Second: B2
The Ho/Con_2b of the first is higher: 160 % of control for the first, 145 % of control for the second.

First: B3
Second: B4
The Ho/Con_2b of the first is lower: 132 % of control for the first, 158 % of control for the second.

Going from B5 to B6, the Ho/Con_2b rises from 117 % of control to 162 % of control.

Going from B7 to B8, the Ho/Con_2b rises from 103 % of control to 116 % of control.

Compared with B9, B10 is lower in Ho/Con_2b: 110 % of control for the first, 106 % of control for the second.

Going from B11 to B12, the Ho/Con_2b falls from 193 % of control to 148 % of control.

First: B13
Second: B14
The Ho/Con_2b of the first is higher: 117 % of control for the first, 111 % of control for the second.

Going from B15 to B16, the Ho/Con_2b rises from 104 % of control to 111 % of control.

Going from B17 to B18, the Ho/Con_2b falls from 207 % of control to 182 % of control.

First: B19
Second: B20
The Ho/Con_2b of the first is lower: 100 % of control for the first, 138 % of control for the second.

Going from B21 to B22, the Ho/Con_2b rises from 175 % of control to 298 % of control.

Compared with B23, B24 is higher in Ho/Con_2b: 140 % of control for the first, 163 % of control for the second.

First: B25
Second: B26
The Ho/Con_2b of the first is lower: 177 % of control for the first, 185 % of control for the second.

These binders were tested against T2, FcγRIa extracellular domain with C-terminal His tag (human, UniProt P12314 16-292) (assay: SPR Biacore, relative FcγRIa binding vs GpH7-A5/GpH7-B3/GpL16-k0).
T2 construct: extracellular domain; also called FcgRI; CD64; not shown: His tag at the C terminus
T2 sequence (P12314 16-292): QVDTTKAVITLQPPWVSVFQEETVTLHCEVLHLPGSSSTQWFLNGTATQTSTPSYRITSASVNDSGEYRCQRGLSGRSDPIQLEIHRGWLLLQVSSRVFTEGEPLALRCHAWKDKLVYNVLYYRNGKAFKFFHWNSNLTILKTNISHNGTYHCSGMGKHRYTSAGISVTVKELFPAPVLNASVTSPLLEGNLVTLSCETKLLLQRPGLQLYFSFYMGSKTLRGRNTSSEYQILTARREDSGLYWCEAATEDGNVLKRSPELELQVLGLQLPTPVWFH

Compared with B27, B28 is lower in He/Con_1a: 107 % of HeCon Ab (=100) for the first, 105 % of HeCon Ab (=100) for the second.

With B29 the He/Con_1a was 100 % of HeCon Ab (=100).

— patent publication US20180155451A1 (published 2018)
